The record followed here is publication PMC2140037 (The Journal of Cell Biology, 2007).

One assay has as its target GST-Sed5H1 (yeast) (UniProt Q01590). The assay is described as follows: pull-down.
Another assay has as its target GST-Sed5H1 + 2 (yeast) (UniProt Q01590). The assay is described as follows: pull-down.
The target of the next assay is GST-Sed5H2 (yeast) (UniProt Q01590). The assay is described as follows: pull-down.
Assay [1] has as its target rat Cog3p (rat (endogenous in rat liver Golgi membranes)). Put plainly: co-IP.
In assay [2] the target is yeast COG complex (purified from TAP-yCog2 cells) (yeast, UniProt P53079;P53271;P40094;Q06096;P53951;P53959;P53195;Q04632). The assay is described as follows: pull-down.

As for “yeast COG complex (purified from TAP-yCog2 cells), P53079;P53271;P40094;Q06096;P53951;P53959;P53195;Q04632”, the fold less efficient binding than to the cytosolic portion of Sed5p and Sed5H3 with GST-Sed5H1 (yeast), in the assay with GST-Sed5H1 + 2 (yeast) and with GST-Sed5H2 (yeast) was 4 fold in each case.

B1: GS28 (rat liver Golgi) (natural protein)
chain: MAAGTSNYWEDLRKQARQLENELDLKLVSFSKLCTSYSHSSARDGGRDRYSSDTTPLLNGSSQDRMFETMAIEIEQLLARLTGVNDKMAEYTHSAGVPSLNAALMHTLQRHRDILQDYTHEFHKTKANFMAIRERENLMGSVRKDIESYKSGSGVNNRRTELFLKEHDHLRNSDRLIEETISIAMATKENMTSQRGMLKSIHSKMNTLANRFPAVNSLIQRINLRKRRDSLILGGVIGICTILLLLYAFH
Turning to B1, the percent coimmunoprecipitated in assay [1] is below 4%.

B2: Golgi matrix protein GM130 (rat liver Golgi) (natural protein)
chain: MWPPRFPPPRPGMSEETRQSKLAAAKKKLREYQQKNSPGVPAGAKKKKKIKNGHSPERTSASDCQSAENVPTDHTAPAPPSTAAATMFLGVVPSPDADLIQSHDAGNCSNLMEETKTFSSTESLRQLSQQLNGLVSESTSYINGEGLTSSNMKELESRYQELAVALDSSYVTNKQLSSTIEELKQQNQDTLDQLEKEKKDYQQKLAKEQGALREQLQVHIQTIGILVSEKAELQTALAHTQQAARQKAGESEDLASRLQSSRQRVGELERTLSTVSTQQKQADRYNKDLTKERDALKLELYKNGKSNEDLRQQNSELEEKLRVLVAEKAAAQLGAEELQKKLEMSELLLQQFSSQSEASGSNEQLQQAMEERAQLESHVGQLMESLKQLQVERDQYAENLKGESAMWQQRVQQMAEQVHALKEEKEQRESQVQELEASLAELRSQMEEPPPPEPPTGPSEAEERLQGEVEQLQKELEGLTGQLRAQVQDNESLSHLNREQEGRLLELEREAQHWSEQAEERKQILESMQSDRTTISRALSQNRELKEQLAELQNGFVRLTNENMEITSALQSEQHVKKELARKLGELQERLGELKETVELKSQEAQGLQEQRDQCLSHLQQYAAAYQQHLTAYEQLTSEKEALHKQLLLQTQLMDQLQHEEVQGKMAAEMARQELQEAQERLKASSQENQQLQAQLSLLVLPGEDMDQEEQDEEVPQPSLTIPEDLVSREAMVAFCNAAIARAEEEQARLRVQLREQKARCRSLAHLAAPVQSKLEKEAVVPRDMGDSVSEESNQALHVAMEKLQNRFLEVMQEKVELKERVEELEHCCIQLSGETDTIGEYIALYQNQRAVLKARHLEKEEYISRLAQDKEEMKVKLLELQELVLRLVNERNEWQGKFLAVSQNPADVPAPVPTGSQEFGAADQQGDLREVSLADDTEPAQGEAGVPAPQENPTAQQIMQLLREIQNPQERPGLGSNPCIPFFYRADENDEVKIMVI
With B2, in assay [1], the percent coimmunoprecipitated was 10%.

B3: GST-Sed5p, cytosolic portion (domain or fragment)
chain: MNIKDRTSEFQQSVLSYKKRNKNFREQQRERLQEKESENFANNTTGNGKSVSEFQKKASGIAHEISSTAQLLSKLAVLAKRKPMFNDNPVEIAELSFLIKRKIYAIEQSLVQLSQLKKTDVNGNTSNQSSKQPSAVQHSKNVVNLLNTQMKNISGSFKDVLEERQRLEMANKDRWQKLTTDTGHAPADDQTQSNHAADLTTYNNSNPFMTSLLDESSEKNNNSSNQGELSFPQNDSQLMLMEEGQLSNNVYLQERNRAVETIESTIQEVGNLFQQLASMVQEQGEVIQRIDANVDDIDLNISGAQRELLKYFDRIKSNR
In the case of B3, the binding result in assay [2] is on record as “binds”.

B4: GST-Sed5H3 (SNARE domain of Sed5p) (domain or fragment)
chain: FMTSLLDESSEKNNNSSNQGELSFPQNDSQLMLMEEGQLSNNVYLQERNRAVETIESTIQEVGNLFQQLASMVQEQGEVIQRIDANVDDIDLNISGAQRELLKYFDRIKSNRWLAAK
With B4, the binding result in assay [2] is “binds”.

B5: vesicle-tethering factor p115 (rat liver Golgi) (natural protein)
chain: MNFLRGVMGGQSAGPQHTEAETIQKLCDRVASSTLLDDRRNAVRALKSLSKKYRLEVGIQAMEHLIHVLQTDRSDSEIIAYALDTLYNIISNDEEEEVEENSTRQSEDLGSQFTEIFIKQPENVTLLLSLLEEFDFHVRWPGVRLLTSLLKQLGPPVQQIILVSPMGVSKLMDLLADSREIIRNDGVLLLQALTRSNGAIQKIVAFENAFERLLDIITEEGNSDGGIVVEDCLILLQNLLKNNNSNQNFFKEGSYIQRMKAWFEVGDENPGWSAQKVTNLHLMLQLVRVLVSPTNPPGATSSCQKAMFQCGLLQQLCTILMATGIPADILTETINTVSEVIRGCQVNQDYFASVNAPSNPPRPAIVVLLMSMVNERQPFVLRCAVLYCFQCFLYKNEKGQGEIVATLLPSTIDATGNSVSAGQLLCGGLFSTDSLSNWCAAVALAHALQGNATQKEQLLRVQLATSIGNPPVSLLQQCTNILSQGSKIQTRVGLLMLLCTWLSNCPIAVTHFLHNSANVPFLTGQIAENLGEEEQLVQGLCALLLGISIYFNDNSLENYTKEKLKQLIEKRIGKENYIEKLGFISKHELYSRASQKPQPNFPSPEYMIFDHEFTKLVKELEGVITKAIYKSSEEDKKEEEVKKTLEQHDNIVTHYKNMIREQDLQLEELKQQVSTLKCQNEQLQTAVTQQASQIQQHKDQYNLLKVQLGKDNHHQGSHSDGAQVNGIQPEEISRLREEIEELRSHQVLLQSQLAEKDTVIENLRSSQVSGMSEQALATCSPRDAEQVAELKQELSALKSQLCSQSLEITRLQTENSELQQRAETLAKSVPVEGESELVTAAKTTDVEGRLSALLQETKELKNEIKALSEERTAIQKQLDSSNSTIAILQTEKDKLYLEVTDSKKEQDDLLVLLADQDQKILSLKSKLKDLGHPVEEEDESGDQEDDDDELDDGDRDQDI
In turn, B5 displayed a percent coimmunoprecipitated in assay [1] of 4%.

B6: Syntaxin5a (rat liver Golgi) (natural protein)
chain: MSCRDRTQEFLSACKSLQSRQNGIQTNKPALHATRQCSEFTLMARRIGKDLSNTFAKLEKLTILAKRKSLFDDKAVEIEELTYIIKQDINSLNKQIAQLQDFVRAKGSQSGRHLQTHSNTIVVSLQSKLASMSNDFKSVLEVRTENLKQQRNRREQFSRAPVSALPLAPNNLGGGPIVLGGESRASRDVAIDMMDPRTSQQLQLIDEQDSYIQSRADTMQNIESTIVELGSIFQQLAHMVKEQEETIQRIDENVLGAQLDVEAAHSEILKYFQSVTSNRWLMVKIFLILIVFFIIFVVFLA
For B6, the percent coimmunoprecipitated in assay [1] was below 4%.
